Results as given in publication PMC7794297.

B1: TrxR 2: recombinant human thioredoxin reductase 2, selenoenzyme (protein, UniProt Q9NNW7 37-524, looked up)
Thioredoxin reductase 2, …: QRDYDLLVVGGGSGGLACAKEAAQLGRKVAVVDYVEPSPQGTRWGLGGTCVNVGCIPKKLMHQAALLGGLIQDAPNYGWEVAQPVPHDWRKMAEAVQNHVKSLNWGHRVQLQDRKVKYFNIKASFVDEHTVCGVAKGGKEILLSADHIIIATGGRPRYPTHIEGALEYGITSDDIFWLKESPGKTLVVGASYVALECAGFLTGIGLDTTIMMRSIPLRGFDQQMSSMVIEHMASHGTRFLRGCAPSRVRRLPDGQLQVTWEDSTTGKEDTGTFDTVLWAIGRVPDTRSLNLEKAGVDTSPDTQKILVDSREATSVPHIYAIGDVVEGRPELTPIAIMAGRLLVQRLFGGSSDLMDYDNVPTTVFTPLEYGCVGLSEEEAVARHGQEHVEVYHAHYKPLEFTVAGRDASQCYVKMVCLREPPQLVLGLHFLGPNAGEVTQGFALGIKCGASYAQVMRTVGIHPTCSEEVVKLRISKRSGLDPTVTGCUG
For B1, the Kobs (5% (mol) catalyst, 2.5% (v/v) DMSO, 190 μM 3, Tris pH 7.8, 6 °C, uncatalyzed 0.014 ± 0.001) was 0.035 ± 0.003 M⁻¹ s⁻¹ and the “time until total completion of homodimerization” value (5% mol) was 5 days.
